In assay [1] the target is T1, membrane-bound HLA-A0201 molecule on T2 cells (human).
T1 construct: whole, on cells; also called human MHC class 1 molecule
Kind of assay: T2 cell HLA-A0201 stabilisation, BB7.2 staining, flow cytometry. How it is done: (§1) Thus, the detection of this specific epitope is indicative of stable membrane-bound HLA-A0201 molecules loaded with peptide.
(§2) T2 cells were propagated in Iscove's complete medium (Iscove's medium supplemented with 10% heat-inactivated bovine serum, 120.0 units per ml of penicillin G sodium, 120 μg per ml of streptomycin sulphate, and 0.35 mg per ml of L-glutamine). The ability of PSMA peptides (Table 1) to bind and stabilize surface HLA-A0201 molecules on T2 cells was determined utilizing a protocol documented in the art (Deng, Y. (1997) J Immunol 158:1507-1515). In essence, 0.5×10⁶ T2 cells were incubated with 125.0 μM of the test peptide in 200.0 μl of serum-free culture medium (Iscove's medium supplemented with 120.0 units per ml of penicillin G sodium, 120.0 μg per ml of streptomycin sulphate and 0.35 mg per ml of L-glutamine) overnight at 37° C. Subsequently, cells were washed twice with Iscove's medium (without bovine serum) to remove free PSMA peptide. To the cell pellet was added 1.0 ml of complete Iscove's medium (supplemented with fetal bovine serum (10% final)) containing 5.0 μg per ml of brefeldin A (Sigma), 12.5 μg per ml of anisomycin (Sigma) and 5.0 μg per ml of cyclohexamide (Sigma). The samples were incubated for 3.0 hr in a 37° C. CO₂ incubator. The cells were subsequently incubated 30 min on ice prior to two washes with ice-cold PBA (phosphate buffered saline (pH 7.2) containing 2.0% bovine serum). 100.0 μl of PBA containing 5.0 μg of monoclonal antibody BB7.2 was added to each test sample. The reaction was allowed to proceed on ice for 45 min. Cells were then washed three times with ice-cold PBA. The binding of BB7.2 was detected via the addition of 100.0 μl of PBA containing 1.0 μg of goat anti-mouse IgG-Fc fluorescein (FITC) conjugate (BETHYL Laboratories Inc.). After a 30 min incubation on ice, cells were twice washed with ice-cold PBA, and twice with ice-cold PBS (pH 7.2). […] Samples were analyzed by Flow Cytometry. Results were expressed in units of Fluorescence Index (FI), calculated by the equation: […]
For orientation: In flow cytometry, cells or beads pass a laser one at a time.

For assay [2], the target named is T1, membrane-bound HLA-A0201 molecule on T2 …. The assay is described as follows: T2 cell HLA-A0201 stabilisation at 125.0 µM peptide, BB7.2 staining, flow cytometry. How it is done: as §1, §2
Assay [3] shares this target. The assay is described as follows: T2 cell HLA-A0201 stabilisation, BB7.2 staining, flow cytometry. How it is done:
as §2, with “The samples were incubated for 3.0 hr in a 37° C. CO₂ incubator. The cells were subsequently incubated 30 min on ice prior to two washes with ice-cold PBA (phosphate buffered saline (pH 7.2) containing 2.0% bovine serum). 100.0 μl of PBA containing 5.0 μg of monoclonal antibody BB7.2 was added to each test sample. The reaction was allowed to proceed on ice for 45 min. Cells were then washed three times with ice-cold PBA.” left out, “Inc.).” for “Inc.). After a 30 min incubation on ice, cells were twice washed with ice-cold PBA, and twice with ice-cold PBS (pH 7.2).”
The source holds these as a separate data set.

Where two headings read alike, the source gives them in different places.

Regarding NLNGAGDPL (also called PSMA 260-268) [CLP-331], the binding result in assay [1] was “no binding”.
MMNDQLMFL (also called CPL-336; PSMA 663-671) [CLP-336]: in assay [2], the “Fluorescence Index (FI)” value stood at 3.7 FI.
As to PMFKYHLTV (also called PSMA 568-576) [CLP-334], in assay [1], the binding result is “no binding”.

B1: CLP-324 (peptide)
peptide: LDSVELAHY
notes: Negative control; also called negative control peptide; PSMA 105-113
For the molecule B1, the binding result in assay [3] is listed as “no binding (tested: 125.0 µM peptide)”.
On to LMYSLVHNL (also called PSMA 469-477) [CLP-333], for which, in assay [2], the “Fluorescence Index (FI)” value was determined as 2.7 FI.
Take LLHETDSAV (also called PSMA 4-12) [CLP-326]: in assay [2], the “Fluorescence Index (FI)” value is 0.6 FI.
Turning to NMKAFLDEL (also called PSMA 57-65) [CLP-329], the binding result in assay [1] was “no binding”.

These data come from patent US20030027246A1 (published 2003).
